Results as given in US20160058881A1, “PRODRUGS WITH PROLONGED ACTION” (INDIANA UNIVERSITY RESEARCH AND TECHNOLOGY CORPORATION, priority 2013, published 2016).
Positions of bridges follow the written chain, without caps; N, C: chain ends. Non-standard residues stand in square brackets, D forms with d. Groups on a side chain read outwards from the residue. No end group written: not given here. *: point of attachment. Docosanoyl = CCCCCCCCCCCCCCCCCCCCCC(=O)*; Phe(4-NH2) = Nc1ccc(C[C@H](N)C(=O)O)cc1; PhLac = O=C(O)[C@@H](O)Cc1ccccc1; Aib = CC(C)(N)C(=O)O; C20 = C20 acyl group; Sar = CNCC(=O)O

B1: [A2E3, E16K20(Lactam), D28]G(1~29) (Table 2 peptide 8) (peptide)
peptide: HAEGTFTSEYSKYLDERRAKDFVQWLMDT-NH2
modifications: lactam 16-20; N-terminus assumed
SMILES: CSCC[C@H](NC(=O)[C@H](CC(C)C)NC(=O)[C@H](Cc1c[nH]c2ccccc12)NC(=O)[C@H](CCC(N)=O)NC(=O)[C@@H](NC(=O)[C@H](Cc1ccccc1)NC(=O)[C@H](CC(=O)O)NC(=O)[C@@H]1CCCCNC(=O)CC[C@H](NC(=O)[C@H](CC(=O)O)NC(=O)[C@H](CC(C)C)NC(=O)[C@H](Cc2ccc(O)cc2)NC(=O)[C@H](CCCCN)NC(=O)[C@H](CO)NC(=O)[C@H](Cc2ccc(O)cc2)NC(=O)[C@H](CCC(=O)O)NC(=O)[C@H](CO)NC(=O)[C@@H](NC(=O)[C@H](Cc2ccccc2)NC(=O)[C@@H](NC(=O)CNC(=O)[C@H](CCC(=O)O)NC(=O)[C@H](C)NC(=O)[C@@H](N)Cc2c[nH]cn2)[C@@H](C)O)[C@@H](C)O)C(=O)N[C@@H](CCCNC(=N)N)C(=O)N[C@@H](CCCNC(=N)N)C(=O)N[C@@H](C)C(=O)N1)C(C)C)C(=O)N[C@@H](CC(=O)O)C(=O)N[C@H](C(N)=O)[C@@H](C)O
B2: Peptide D (parent peptide, lacking acylation and lacking a dipeptide prodrug moiety) (peptide)
peptide: F[Aib]EGTFTSD[Phe(4-NH2)]SIYLDKQAA[Aib]EFVNWLLAGGPSSGAPPPS-NH2
modifications: N-terminus assumed
SMILES: CC[C@H](C)[C@H](NC(=O)[C@H](CO)NC(=O)[C@H](Cc1ccc(N)cc1)NC(=O)[C@H](CC(=O)O)NC(=O)[C@H](CO)NC(=O)[C@@H](NC(=O)[C@H](Cc1ccccc1)NC(=O)[C@@H](NC(=O)CNC(=O)[C@H](CCC(=O)O)NC(=O)C(C)(C)NC(=O)[C@@H](N)Cc1ccccc1)[C@@H](C)O)[C@@H](C)O)C(=O)N[C@@H](Cc1ccc(O)cc1)C(=O)N[C@@H](CC(C)C)C(=O)N[C@@H](CC(=O)O)C(=O)N[C@@H](CCCCN)C(=O)N[C@@H](CCC(N)=O)C(=O)N[C@@H](C)C(=O)N[C@@H](C)C(=O)NC(C)(C)C(=O)N[C@@H](CCC(=O)O)C(=O)N[C@@H](Cc1ccccc1)C(=O)N[C@H](C(=O)N[C@@H](CC(N)=O)C(=O)N[C@@H](Cc1c[nH]c2ccccc12)C(=O)N[C@@H](CC(C)C)C(=O)N[C@@H](CC(C)C)C(=O)N[C@@H](C)C(=O)NCC(=O)NCC(=O)N1CCC[C@H]1C(=O)N[C@@H](CO)C(=O)N[C@@H](CO)C(=O)NCC(=O)N[C@@H](C)C(=O)N1CCC[C@H]1C(=O)N1CCC[C@H]1C(=O)N1CCC[C@H]1C(=O)N[C@@H](CO)C(N)=O)C(C)C
B3: [E9, E16K20(lactam), D28]G(4~29) (Table 2 peptide 5) (peptide)
peptide: GTFTSEYSKYLDERRAKDFVQWLMDT-NH2
modifications: lactam 13-17; N-terminus assumed
SMILES: CSCC[C@H](NC(=O)[C@H](CC(C)C)NC(=O)[C@H](Cc1c[nH]c2ccccc12)NC(=O)[C@H](CCC(N)=O)NC(=O)[C@@H](NC(=O)[C@H](Cc1ccccc1)NC(=O)[C@H](CC(=O)O)NC(=O)[C@@H]1CCCCNC(=O)CC[C@H](NC(=O)[C@H](CC(=O)O)NC(=O)[C@H](CC(C)C)NC(=O)[C@H](Cc2ccc(O)cc2)NC(=O)[C@H](CCCCN)NC(=O)[C@H](CO)NC(=O)[C@H](Cc2ccc(O)cc2)NC(=O)[C@H](CCC(=O)O)NC(=O)[C@H](CO)NC(=O)[C@@H](NC(=O)[C@H](Cc2ccccc2)NC(=O)[C@@H](NC(=O)CN)[C@@H](C)O)[C@@H](C)O)C(=O)N[C@@H](CCCNC(=N)N)C(=O)N[C@@H](CCCNC(=N)N)C(=O)N[C@@H](C)C(=O)N1)C(C)C)C(=O)N[C@@H](CC(=O)O)C(=O)N[C@H](C(N)=O)[C@@H](C)O

Key:
GLP-1 receptor [1] = molecular target: GLP-1 receptor (Homo sapiens, UniProt P43220); experiment: GLP-receptor luciferase bioassay of samples incubated in 20% human plasma (restored activity); format: cell-based; settings: 37° C., 0 to 5 d
Procedure: To explore the possible formation of DKP and simultaneous regeneration of the parent drug, the above-mentioned peptides were incubated in 20% human plasma at 37° C. for approximately 5 days. Samples were collected at different time points (0, 1, 2, and 5 days).

glucagon receptor [2] = molecular target: glucagon receptor (UniProt P47871); experiment: cell-based or functional assay
glucagon receptor [3] = molecular target: glucagon receptor (UniProt P47871); experiment: cell-based or functional assay; remark: listed apart in the source
GLP-1 receptor [4] = molecular target: T1, GLP-1 receptor (UniProt P43220 24-463, limits assumed); experiment: cell-based or functional assay
glucagon receptor [5] = molecular target: glucagon receptor (UniProt P47871 26-477, limits assumed); experiment: cell-based or functional assay
GLP-1 receptor [6] = molecular target: T1, GLP-1 receptor; experiment: cell-based or functional assay; remark: listed apart in the source

Sequence of glucagon receptor (UniProt P47871 26-477, limits assumed) (P47871 26-477 limits assumed): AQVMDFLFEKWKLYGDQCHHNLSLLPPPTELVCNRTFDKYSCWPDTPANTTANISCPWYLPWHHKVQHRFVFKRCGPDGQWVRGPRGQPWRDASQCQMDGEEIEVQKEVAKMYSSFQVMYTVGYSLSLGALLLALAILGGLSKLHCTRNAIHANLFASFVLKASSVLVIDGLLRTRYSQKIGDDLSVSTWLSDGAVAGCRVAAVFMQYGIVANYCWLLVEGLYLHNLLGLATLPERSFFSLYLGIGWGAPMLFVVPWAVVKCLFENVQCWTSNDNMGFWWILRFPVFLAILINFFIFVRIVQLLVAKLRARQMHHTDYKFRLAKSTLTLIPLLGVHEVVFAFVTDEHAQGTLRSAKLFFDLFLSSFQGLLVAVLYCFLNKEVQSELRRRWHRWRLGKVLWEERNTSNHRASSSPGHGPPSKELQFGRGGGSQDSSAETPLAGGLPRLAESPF
Sequence of GLP-1 receptor (Homo sapiens, UniProt P43220) (P43220 24-463): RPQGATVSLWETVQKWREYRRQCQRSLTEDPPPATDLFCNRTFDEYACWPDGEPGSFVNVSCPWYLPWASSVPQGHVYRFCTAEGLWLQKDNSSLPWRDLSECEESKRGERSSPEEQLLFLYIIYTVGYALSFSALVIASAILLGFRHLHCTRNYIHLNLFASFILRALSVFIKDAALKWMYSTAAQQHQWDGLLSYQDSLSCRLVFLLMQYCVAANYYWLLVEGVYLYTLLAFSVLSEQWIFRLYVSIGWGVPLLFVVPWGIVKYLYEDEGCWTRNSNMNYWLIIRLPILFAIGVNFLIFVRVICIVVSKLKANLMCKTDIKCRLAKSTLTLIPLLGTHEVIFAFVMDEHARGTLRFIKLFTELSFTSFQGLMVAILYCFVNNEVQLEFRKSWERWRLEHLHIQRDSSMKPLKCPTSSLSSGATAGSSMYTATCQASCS
Sequence of glucagon receptor (UniProt P47871) (P47871 26-477 limits assumed): as the sequence (P47871 26-477 limits assumed) above

Molecule	GLP-1 EC50 (GLP-1 receptor [4]) [nM]	Relative activity to GLP-1 standard, luciferase cAMP reporter assay, sample after 0 d in 20% human plasma at 37 C (GLP-1 receptor [6]) [%]	Relative activity to GLP-1 standard, luciferase cAMP reporter assay, sample after 1 d in 20% human plasma at 37 C (GLP-1 receptor [6]) [%]	Relative activity to GLP-1 standard, luciferase cAMP reporter assay, sample after 5 d in 20% human plasma at 37 C (GLP-1 receptor [6]) [%]	also measured
C20 attached directly to position 10 (non-prodrug): non-prodrug: C20-acylated lysine attached directly to the 4-amino group of phenylalanine at position 10 of Peptide D (F[Aib]EGTFTSD[Phe(4-NH2)]([Lys-C20])SIYLDKQAA[Aib]EFVNWLLAGGPSSGAPPPS; not fully specified (C-terminus))					Change of activity over the time points in plasma (GLP-1 receptor [1]): No change
C22 attached directly to position 10 (non-prodrug): non-prodrug: C22-acylated lysine attached directly to the 4-amino group of phenylalanine at position 10 of Peptide D (F[Aib]EGTFTSD[Phe(4-NH2)]([Lys-Docosanoyl])SIYLDKQAA[Aib]EFVNWLLAGGPSSGAPPPS; not fully specified (C-terminus))					Change of activity over the time points in plasma (GLP-1 receptor [1]): No change
E9, K12, E16 glucagon(6-39) Cex peptide (Table 1 peptide 1)					Glu IC50 (glucagon receptor [2]): 762 nM; Glucagon IC50 (glucagon receptor [3]): 762 nM
B1	0.2				Glucagon IC50 (nM); PA = partial antagonist (glucagon receptor [5]): 130 nM
HSQGTFTSDYARYLDARRAREFIKWLVRGRG [ANK2 (Bayer peptide) (Table 2 peptide 9)]	0.28				
B2		85.2	84.1	72.8	
F[Aib]EGTFTSD[Phe(4-NH2)]([Sar-dK-C22 acyl])SIYLDKQAA[Aib]EFVNWLLAGGPSSGAPPPS-NH2 [Peptide D with C22 acylated (d)Lysine-sarcosine dipeptide prodrug moiety at position 10]		30.9	48.2	63.2	Restored (percent, 0 d; not defined in the filing, matches the ratio to the parent peptide at the same time) (GLP-1 receptor [6]): 36%; Restored (percent, 1 d; not defined in the filing, matches the ratio to the parent peptide at the same time) (GLP-1 receptor [6]): 57%; Restored (percent, 5 d; not defined in the filing, matches the ratio to the parent peptide at the same time) (GLP-1 receptor [6]): 87%
F[Aib]EGTFTSD[Phe(4-NH2)]([Sar-dK-C20 acyl])SIYLDKQAA[Aib]EFVNWLLAGGPSSGAPPPS-NH2 [Peptide D with C20 acylated (d)Lysine-sarcosine dipeptide prodrug moiety at position 10]		30.9	37.8	96.9	Restored (percent, 0 d; not defined in the filing, matches the ratio to the parent peptide at the same time) (GLP-1 receptor [6]): 36%; Restored (percent, 1 d; not defined in the filing, matches the ratio to the parent peptide at the same time) (GLP-1 receptor [6]): 45%; Restored (percent, 5 d; not defined in the filing, matches the ratio to the parent peptide at the same time) (GLP-1 receptor [6]): 133%
B3	151				Glucagon IC50 (glucagon receptor [5]): 10 to 30 nM
[PhLac]TSDYSKYLDERRAKDFVEWLMDT (lactam 15-19) [[PLA6, D9, E16, K20E24(Lactam), D28]G(6-29) (Table 2 peptide 3)]	239				Glucagon IC50 (glucagon receptor [5]): 74 nM
[PhLac]TSDYSKYLDERRAQDFVEWLMKT (lactam 19-23) [[PLA6, D9, E16, E24K28(lactam)]G(6~29) (Table 2 peptide 4)]	289				Glucagon IC50 (glucagon receptor [5]): 22 nM
AEGTFTSEYSKYLDERRAKDFVQWLMDT (lactam 15-19) [[A2E3, E16K20(Lactam),D28]G(2~29) (Table 2 peptide 7)]					Glucagon IC50 (glucagon receptor [5]): 63 nM
F[Aib]EGTFTSD[Phe(4-NH2)]([Lys-C22 acyl])SIYLDKQAA[Aib]EFVNWLLAGGPSSGAPPPS-NH2 (also: acylated amino group of the Lys not given here)		1.8	2.1	0.4	
F[Aib]EGTFTSD[Phe(4-NH2)]([Lys-C20 acyl])SIYLDKQAA[Aib]EFVNWLLAGGPSSGAPPPS-NH2 (also: acylated amino group of the Lys not given here)		3.4	0.7	0.2	
